# Assay results as given in PMC6606807.
# Key:
# [1] = target: PGT145 (human IgG1), as the ligand of CD16; assay: flow cytometry on cells; details: read off a plot; for other: Binding (AUC): area under the PGT145 staining curve, parent: est. 12000; for response: parent: est. 540
# [2] = target: soluble SIVmac239 Env SOSIP.664 trimer, wild type (SIVmac239); assay: cryo-EM 2-D class averages; SIVmac239 Env trimers affinity purified with PGT145, ~6 mg/ml diluted 3:1 into n-dodecyl-beta-D-maltoside, plunge frozen; ~62,000 particles
Substance,other: Binding (AUC) [1],response [1] [gMFI],stoichiometry N [2]
SIVmac239 Env WT N171Q,740,220,
SIVmac239 Env WT K181S,11000,450,
SIVmac239 Env WT K180S,260000,6600,
SIVmac239 Env WT R177A,1300,180,
SIVmac239 Env WT K179S,46000,1500,
"soluble SIVmac239 Env SOSIP.664 trimer, wild type (complex)",,,3
